# B1: RSFP2D9抗体 (antibody, V domains shown)
# VH: EVQLVESGGGLVQPGGSLRLSCAASGFTFSTYEMNWVRQAPGKGLEWISYISVSGATIYYADSVKGRFTISRDNAKSSVYLQMTSLRPEDTAIYYCARDNSLTDYGSGLYWGQGTTVTVSS
# VL: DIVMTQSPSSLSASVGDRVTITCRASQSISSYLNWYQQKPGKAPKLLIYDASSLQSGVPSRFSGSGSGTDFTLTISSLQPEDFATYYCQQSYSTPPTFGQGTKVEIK
# B2: RSFP2B6抗体 (antibody, V domains shown)
# VH: QVQLVQSGGALAQPGRSLRLSCTTSGFTFGDYAVNWVRQAPGKGLEWVGIVRTEPYGGTTEYSASVKGRFIISRDDSKGIAYLQMNSLKTEDTGVYYCSQPILNVDVWGQGTTVTVSS
# VL: NFMLTQPHSVSESPGKTVTISCTRSSGSFGSDYVQWYQQRPGSAPNTVIYENNQRPSGVPDRFSGSIDSSSNSASLTISGLKTEDEADYYCQSYDDNTPWVFGGGTELTVL
# B3: RSFP2G7抗体 (antibody, V domains shown)
# VH: QVQLVQSGTEVRKPGSSVKVSCTASGGTFSIYDIFWVRQAPGQGLEWMGRIIPILDQIDYAQKFEGRVTITADKGRKTVYMELSSLRSDDTAVYYCARPPDTYDNIERWGPGTLVTVSS
# VL: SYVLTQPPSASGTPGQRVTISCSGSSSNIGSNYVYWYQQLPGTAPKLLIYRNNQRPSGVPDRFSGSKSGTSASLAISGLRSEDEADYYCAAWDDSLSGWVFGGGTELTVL
# Molecular target: RSV-A2 F假病毒上的F蛋白 (参考序列Uniprot:P03420) (RSV A2, UniProt P03420 26-574)
# Experiment: cell-based or functional assay
# RSV-A2 F假病毒上的F蛋白 (参考序列Uniprot:P03420), sequence (P03420 26-574, one chain of several): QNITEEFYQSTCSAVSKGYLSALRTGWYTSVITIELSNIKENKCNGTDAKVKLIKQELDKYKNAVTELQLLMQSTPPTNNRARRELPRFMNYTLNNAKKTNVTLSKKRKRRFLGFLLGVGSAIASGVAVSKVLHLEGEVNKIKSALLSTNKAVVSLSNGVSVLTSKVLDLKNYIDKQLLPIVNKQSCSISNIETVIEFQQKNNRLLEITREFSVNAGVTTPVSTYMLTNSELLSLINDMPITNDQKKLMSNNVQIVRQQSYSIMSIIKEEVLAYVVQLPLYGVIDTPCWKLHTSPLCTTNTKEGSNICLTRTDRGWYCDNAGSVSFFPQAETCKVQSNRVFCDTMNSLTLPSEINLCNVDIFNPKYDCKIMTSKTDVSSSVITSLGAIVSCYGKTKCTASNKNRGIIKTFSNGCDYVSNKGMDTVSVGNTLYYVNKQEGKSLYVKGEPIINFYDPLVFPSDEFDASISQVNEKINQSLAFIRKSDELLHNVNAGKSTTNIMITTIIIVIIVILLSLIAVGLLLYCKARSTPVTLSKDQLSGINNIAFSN
row,Binder,"中和IC50 (RSV-A2假病毒, luciferase, 293T细胞)"
1,B1,0.532 µg/mL
2,B2,3.89 µg/mL
3,B3,1.7 µg/mL

# Molecular target: RSV(strain A2)病毒的F蛋白 (RSV (strain A2), UniProt P03420 26-574)
# Experiment: cell-based or functional assay
# RSV(strain A2)病毒的F蛋白, sequence (P03420 26-574): as the sequence (P03420 26-574, one chain of several) above
row,Binder,"中和IC50 (RSV strain A2活病毒, focus count, 293T细胞)"
1,B1,0.054 µg/mL
2,B2,1 µg/mL
3,B3,0.734 µg/mL
